Results: patent publication US20210309739A1 (CISCIO BIOASSAYS, published 2021)
Changes are numbered by the printed parent chain. Read-outs that look alike come from different tables or passages of the source.

Assays:
[1] = molecular target: T1, recombinant TST-Galphai1 protein bound to GTPgammaS (human, UniProt P63096 1-354, Loaded non-covalently with GTPgammaS (10 uM). The N-terminal TwinStreptag and TEV linker are not in the letters.); assay: TR-FRET (HTRF) saturation binding; 6HIS-tagged VH-HcAb titrated on 1 nM TST-Galphai1 with 10 uM GTPgS, anti-TST-Lumi4-Tb donor and anti-6HIS-d2 acceptor; mean Kd
T1 construct: Same polypeptide as m15 and m16; here loaded with an excess of GTPgS (10 uM); Produced in Sf9 insect cells; also called Galphai1 protein loaded with GTPgS
T1 sequence (P63096 whole entry): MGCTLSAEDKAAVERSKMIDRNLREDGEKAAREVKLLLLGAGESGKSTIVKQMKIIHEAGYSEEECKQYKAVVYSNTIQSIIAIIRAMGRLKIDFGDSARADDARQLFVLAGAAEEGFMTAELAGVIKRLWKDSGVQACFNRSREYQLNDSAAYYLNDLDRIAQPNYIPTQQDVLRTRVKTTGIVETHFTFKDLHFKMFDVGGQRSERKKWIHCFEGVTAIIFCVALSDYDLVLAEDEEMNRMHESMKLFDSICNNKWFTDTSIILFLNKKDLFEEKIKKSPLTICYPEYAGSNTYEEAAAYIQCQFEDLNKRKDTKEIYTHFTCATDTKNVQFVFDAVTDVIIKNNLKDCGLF
Procedure: (§1) FIG. 12 illustrates the principle of the TR-FRET (HTRF) assay which was carried out to determine the affinity (Kd) of the various VH-HcAbs for the Galphai1 protein. A fixed concentration (1 nM) of the recombinant Galphai1 protein purified and tagged with TST (TST-Galphai1 protein) is placed in the presence of an excess of nucleotide (GDP or GTPgS) (10 μM), of a fixed concentration (0.5 nM) of anti-TST antibody labeled with the donor Lumi4®-Tb (anti-Tag Ab-Donor), of a fixed concentration (50 nM) of anti-6HIS antibody labeled with the acceptor d2 (anti-6HIS-acceptor antibody, Cisbio Bioassays #61HISDLF), and of increasing concentrations of a VH-HcAb antibody tagged with 6HIS (6HIS-Fc-sdAb). The total HTRF signal was then obtained.
(§2) The specific HTRF signal of the interaction between the VH-HcAb and the Galphai1 protein was then calculated by subtracting the nonspecific signal from the total signal. The data of the specific HTRF signal were then analyzed on GraphPad Prism7 software using a “one site specific binding” fit. The dissociation constant (Kd) of the VH-HcAb for the Galphai1 protein was then determined.

[2] = molecular target: T1, recombinant TST-Galphai1 protein bound …; assay: TR-FRET (HTRF) saturation binding; VH-d2 titrated on 1 nM TST-Galphai1 with 10 uM GTPgS, anti-TST-Lumi4-Tb donor; mean Kd
Procedure: (§3) The TR-FRET (HTRF) test made it possible to determine the affinity (Kd) of the various antibodies for the Galphai1 protein; FIG. 2 illustrates the principle of this test. A fixed concentration (1 nM) of the recombinant Galphai1 protein purified and tagged with TST (TST-Galphai1 protein) was placed in the presence of an excess of nucleotide (GDP or GTPgS) (10 μM), of a fixed concentration (0.5 nM) of anti-TST antibody labeled with the donor Lumi4®-Tb (anti-TST antibody-Lumi4®-Tb) and of increasing concentrations of VH-type single-domain antibodies labeled with the acceptor d2 (anti-Galphai VH antibody-d2). The total HTRF signal was then obtained.
(§4) The specific HTRF signal of the interaction between the antibody and the Galphai1 protein was then calculated by subtracting the nonspecific signal from the total signal. The data of the specific HTRF signal were then analyzed on GraphPad Prism7 software using a “one site specific binding” fit. The dissociation constant (Kd) of the antibody for the Galphai1 protein was then determined. The results which were obtained with the antibodies which bind to the G protein alpha bound to GTP gamma S and with the antibodies which bind to the G protein alpha bound to GDP are shown in Tables 1 and 2 below.

[3] = molecular target: T2, empty G alphai1 protein (recombinant TST-Galphai1 protein, no nucleotide) (human, UniProt P63096 1-354); assay: TR-FRET (HTRF) saturation binding; VH-d2 titrated on TST-Galphai1, empty form; mean Kd
T2 construct: Same polypeptide as m14 and m15; also called empty G protein alpha; empty form of the G protein alpha; not shown: N-terminal TwinStreptag (TST) (IBA) tag and TEV linker
T2 sequence (P63096 whole entry): as above

[4] = molecular target: T3, recombinant TST-Galphai1 protein bound to GDP (human, UniProt P63096 1-354, Loaded non-covalently with GDP (10 uM). The N-terminal TwinStreptag and TEV linker are not in the letters.); assay: TR-FRET (HTRF) saturation binding; 6HIS-tagged VH-HcAb titrated on 1 nM TST-Galphai1 with 10 uM GDP, anti-TST-Lumi4-Tb donor and anti-6HIS-d2 acceptor; mean Kd
T3 construct: Same polypeptide as m14 and m16; here loaded with an excess of GDP (10 uM); Produced in Sf9 insect cells; also called Galphai1 protein loaded with GDP
T3 sequence (P63096 whole entry): as above
Procedure: as §1, §2

[5] = molecular target: T3, recombinant TST-Galphai1 protein bound …; assay: TR-FRET (HTRF) saturation binding; VH-d2 titrated on 1 nM TST-Galphai1 with 10 uM GDP, anti-TST-Lumi4-Tb donor; mean Kd
Procedure: as §3, §4

[6] = molecular target: T2, empty G alphai1 protein (recombinant …); assay: TR-FRET (HTRF) saturation binding; VH-d2 titrated on TST-Galphai1, empty form; mean Kd; remark: listed apart in the source

B1: HcAb-F9 (Fc fusion)
heavy (part 1 of 2): EVQLVESGGGLVQPGGSLRLSCAASGFTFDDYAMNWVRQAAGKGPEWVASISSRGITTDYAHSVKGRFTVSRDNTKNTLYLQMNSLKPDDAAVYYCATDPSTWYRGTAHWGQGTQVTVSSAAAEQKLISEEDLNGAAHHHHHHGS
heavy (part 2 of 2): HHHHHH
notes: also called VH-HcAb F9; 6HIS-Fc-sdAb; not shown: CH2 and CH3 domains of a human IgG1
For B1, the Kd [1] was 3 nM.

B2: VH F4 (VHH)
VHH: EVQLVESGGGLVQPGGSLRLSCAASGFTFSSYYMNWVRQAPGKGLEWVSSIYNGDGDTDYSDSVKGRFTISRDNAKNTVYLEMSDLKVQDTAIYYCNAYDGTLLRDYWGQGTQVTVSS
modifications: labeled with the acceptor fluorescent probe d2 (site not stated)
notes: Made in E. coli; also called anti-Galphai VH antibody-d2
Binder B2 has a Kd [2] of 31 nM and a Kd [3] of 83 nM.

B3: VH B11 (VHH)
VHH: EVQLVESGGGLVQPGGSLRLSCAASGFTFNDYWMYWVRQAPGKGLEWVSSINTGGSSTYYSDSVKGRFTTARDNAKNSLYLQLNSLRPEDTAVYYCAKEGPVGPPDYWGQGTQVTVSS
modifications: labeled with the acceptor fluorescent probe d2 (site not stated)
notes: as for B2
In the case of B3, the Kd [2] is reported as 1 nM and the Kd [3] is reported as 17 nM.

B4: HcAb-G7 (Fc fusion)
heavy (part 1 of 2): QVQLQESGGGLVQPGGSLRLSCAASGFTFSWYGMSWVRQAPGKGPEWVASISSRGITTDYAHSVKGRFTVSRDNTKNTLYLQMNSLKPEDTGVYYCTRVLWYDSGAYSLNDFWGQGTQVTVSSAAAEQKLISEEDLNGAAHHHHHHGS
heavy (part 2 of 2): HHHHHH
notes: VH-type heavy-chain antibody: VH fused to CH2 and CH3 of human IgG1, then a 6-histidine tag; made in HEK293; Detected in the assay through an anti-6HIS antibody labeled with d2; also called VH-HcAb G7; 6HIS-Fc-sdAb; not shown: CH2 and CH3 domains of a human IgG1
With B4 the Kd [4] was 5 nM.

B5: VH E2 (VHH)
VHH: EVQLVESGGGLVQPGGSLRLSCIGSGYTFSSYAMAWVRQASGKGPEWVASISSRGITTDYAHSVKGRFTISRDNAKNTLYLHMNNLKPEDTALYYCTRVLWYENGLYSLNDFWGQGTQVTVSS
modifications: labeled with the acceptor fluorescent probe d2 (site not stated)
notes: as for B2
Work on B5 yielded a Kd [5] of 72 nM and a Kd [6] of 2 nM.

B6: VH G7 (VHH)
VHH: QVQLQESGGGLVQPGGSLRLSCAASGFTFSWYGMSWVRQAPGKGPEWVASISSRGITTDYAHSVKGRFTVSRDNTKNTLYLQMNSLKPEDTGVYYCTRVLWYDSGAYSLNDFWGQGTQVTVSS
modifications: labeled with the acceptor fluorescent probe d2 (site not stated)
notes: as for B2
For B6, the Kd [5] was 31 nM and the Kd [6] was 5 nM.

B7: HcAb-B11 (Fc fusion)
heavy (part 1 of 2): EVQLVESGGGLVQPGGSLRLSCAASGFTFNDYWMYWVRQAPGKGLEWVSSINTGGSSTYYSDSVKGRFTTARDNAKNSLYLQLNSLRPEDTAVYYCAKEGPVGPPDYWGQGTQVTVSSAAAEQKLISEEDLNGAAHHHHHHGS
heavy (part 2 of 2): HHHHHH
notes: also called VH-HcAb B11; 6HIS-Fc-sdAb; not shown: CH2 and CH3 domains of a human IgG1
B7 gave a Kd [1] of 1 nM.

B8: VH A10 (VHH)
VHH: EVQLVESGGGLVQPGGSLRLSCAASGLTYSDYAMSWVRQAAGKGPEWVASISSRGITTDYAHSVKGRFTVSRDNTKNTLYLQMNSLEPEDTAVYYCTTVSYWRYEYWGQGTQVTVSS
modifications: labeled with the acceptor fluorescent probe d2 (site not stated)
notes: as for B2
Work on B8 yielded a Kd [5] of 15 nM and a Kd [6] of 1 nM.

B9: VH F9 (VHH)
VHH: EVQLVESGGGLVQPGGSLRLSCAASGFTFDDYAMNWVRQAAGKGPEWVASISSRGITTDYAHSVKGRFTVSRDNTKNTLYLQMNSLKPDDAAVYYCATDPSTWYRGTAHWGQGTQVTVSS
modifications: labeled with the acceptor fluorescent probe d2 (site not stated)
notes: as for B2
B9 gave a Kd [2] of 32 nM.

B10: VH G6 (VHH)
VHH: B9 VHH with G10D, D30S, D31T, A33R, A41P, P45L, S63P
modifications: labeled with the acceptor fluorescent probe d2 (site not stated)
notes: as for B2
In the case of B10, the Kd [2] is reported as 95 nM.

B11: VH F2 (VHH)
VHH: EVQLVESGGGLVQPGGSLRLSCAASGFTFSSYAMSWVRQAAGKGPEWVASISSRGITTDYAHSVKGRFTVSRDNTKNTLYLQMNSLKPEDTALYYCVKGWMPTGWGQGTQVTVSS
modifications: labeled with the acceptor fluorescent probe d2 (site not stated)
notes: as for B2
B11 showed a Kd [5] of 14 nM and a Kd [6] of 1 nM.
